As usually defined, the Km is the substrate concentration at which the rate is half of its maximum. A word on the Vmax: it is the top rate of the reaction or transport when substrate is in excess. What is called kcat is the number of substrate molecules converted per active site and unit of time at saturation. As usually defined, the kcat/Km is the second-order rate constant that governs catalysis at low substrate concentration.

Holding throughout (settings): co-substrate SAM (100 µM in activity assay), 20 mM Tris-HCl pH 7.5, 37 °C, substrate 0.5-100 µM
Substrate in data set [1]: O=C1C[C@@H](c2ccc(O)c(O)c2)Oc2cc(O)cc(O)c21
Kind of data set: HPLC assay of 7-O-methylation. It is filed as biochemical, Perilla frutescens.

Substrate in data set [2]: O=c1cc(-c2ccccc2)oc2cc(O)cc(O)c12
In words: HPLC assay of 7-O-methylation. It is filed as biochemical, Perilla frutescens.

Substrate in data set [3]: O=c1cc(-c2ccc(O)c(O)c2)oc2cc(O)cc(O)c12
Kind of data set: HPLC assay of 7-O-methylation. It counts as biochemical, Perilla frutescens.

Substrate in data set [4]: O=c1c(O)c(-c2ccc(O)cc2)oc2cc(O)cc(O)c12
In words: HPLC assay of 7-O-methylation. It counts as biochemical, Perilla frutescens.

Substrate in data set [5]: O=C1C[C@@H](c2ccc(O)cc2)Oc2cc(O)cc(O)c21
Kind of data set: HPLC assay of 7-O-methylation. It is filed as biochemical, Perilla frutescens.

Substrate in the data set “purified protein”: O=c1cc(-c2ccc(O)cc2)oc2cc(O)cc(O)c12
Kind of data set: purified protein.

B1: PfOMT3 (Perilla frutescens) (protein)
chain: MKNSSTDEDLSIFAMQVATSSIVPRALKAVIELDLLEMMKKAGRPLSTSEMAAQIQATNPEAALMIDRILRVLIASNILECTTAASHGGAERLYSLAPVCKFFTKNDDGVSWAPLFLMIQDRVFTEAWDHVKDAIVEGGIPFNIAHGMSGFEYPATDPRYNKIFNQAMSDESTMFMHKILELYDGFDGLKSVVDVGGGIGASLKMIITKYPSIQAINFDLPHVIQNAPSHPGLEHRSGDMFVSVPTGDAILLKWIIHNWSDGHCLKLLKNCYEALPEKGKVIIADRILPETENYKEASASVDLAGDALMLTLFTGGKERAEAEFQALAKASGFKHFRKVCCAFSTWIMELYK
notes: primers encode MKNSSTD at start and IMELYK at end
As to B1, the Michaelis-Menten constant (Km) in data set [1] was found to be 13.08 ± 1.42 µM; in data set [2] it was 1.31 ± 0.25 µM; in data set [3] it was 34.21 ± 4.65 µM; in data set [4], 17.88 ± 0.49 µM; in data set [5], 13.40 ± 1.29 µM; in the data set “purified protein”, 3.72 ± 0.05 µM. For the same protein, the maximum rate (Vmax) in data set [1] was determined as 0.00784 µmol/min/mg; in data set [2], 0.00205 µmol/min/mg; in data set [3], 0.00418 µmol/min/mg; in data set [4] it was 0.00581 µmol/min/mg; in data set [5], 0.0517 µmol/min/mg; in the data set “purified protein”, 0.0133 µmol/min/mg. For the same protein, the kcat in data set [1] amounted to 0.00535 s⁻¹; in data set [2], 0.0014 s⁻¹; in data set [3], 0.00285 s⁻¹; in data set [4], 0.00397 s⁻¹; in data set [5] it was 0.0353 s⁻¹; in “purified protein”, 0.0091 s⁻¹. The kcat/Km was found to be 409 M⁻¹ s⁻¹ in data set [1]; 1070 M⁻¹ s⁻¹ in data set [2]; 83.4 M⁻¹ s⁻¹ in data set [3]; 222 M⁻¹ s⁻¹ in data set [4]; 2630 M⁻¹ s⁻¹ in data set [5]; 2440 M⁻¹ s⁻¹ in “purified protein”.

The values above are taken from publication PMC7583084, “Biochemical Characterization of a Flavonoid O-methyltransferase from Perilla Leaves and Its Application in 7-Methoxyflavonoid Production” (Molecules, 2020).
